Target: beta Klotho and FGFR1c (Fibroblast Growth Factor Receptor isoform 1c) expressed on the cell surface of a …
Assay: cell-based or functional assay

B1: wild-type (WT) bFGF-21 (ligand)
chain: HPIPDSSPLLQFGGQVRQRYLYTDDAQETEAHLEIRADGTVVGAARQSPESLLELKALKPGVIQILGVKTSRFLCQGPDGKLYGSLHFDPKACSFRELLLEDGYNVYQSETLGLPLRLPPQRSSNRDPAPRGPARFLPLPGLPAAPPDPPGILAPEPPDVGSSDPLSMVGPSYGRSPSYTS
- EC50 (ng/mL), STEADY-GLO Elk1 luciferase reporter assay: 38 ng/mL
- Fold loss potency relative to WT bFGF21, Elk1 luciferase reporter assay: 1 fold

Source: US20190201491A1 (ELANCO US, published 2019)
